Results published in publication PMC11740425.

What was measured:
[1] = biological target: TCR1 with the T30Q mutation in CDR-1A (human | mouse); experiment: flow cytometry on cells
[2] = biological target: TCR1 with the T30Q mutation in CDR-1A (human | mouse)

pMut-HLA binding positivity rate [1]: 60% | EC50 (functional avidity) of TCR Jurkat cells for KRAS^G12D peptide [2]: 53 nM
Substance: KRAS^G12D peptide presented by HLA-A*11:01 (KRAS^G12D tetramer) (from UniProt P61769 21-119; P01116 7-16) (peptide-MHC)
